Results as given in publication PMC10397247.

Key:
[1] = target: T1, P6-AA-1HGe-A; assay: two-hybrid library CCmax; conditions: mean of both orientations;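 further: natural log of median RNA to DNA barcode read ratio; higher means stronger binding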
T1 chain: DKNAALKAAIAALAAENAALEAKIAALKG

[2] = target: T2, P6-AA-1HGe-S; assay: two-hybrid library CCmax; conditions: mean of both orientations;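 further: natural log of median RNA to DNA barcode read ratio; higher means stronger binding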
T2 chain: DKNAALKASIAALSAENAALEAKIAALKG

[3] = target: T3, P6-AA-1HGe-R; assay: two-hybrid library CCmax; conditions: mean of both orientations;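 further: natural log of median RNA to DNA barcode read ratio; higher means stronger binding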
T3 chain: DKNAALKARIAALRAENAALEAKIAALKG

[4] = target: T4, P6-AA-1HGe-W; assay: two-hybrid library CCmax; conditions: mean of both orientations;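 further: natural log of median RNA to DNA barcode read ratio; higher means stronger binding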
T4 chain: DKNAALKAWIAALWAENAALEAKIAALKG

[5] = target: T5, P6-AA-1HGe-M; assay: two-hybrid library CCmax; conditions: mean of both orientations
T5 chain: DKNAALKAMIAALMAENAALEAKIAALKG

[6] = target: T6, P6-AA-1HGe-T; assay: two-hybrid library CCmax; conditions: mean of both orientations
T6 chain: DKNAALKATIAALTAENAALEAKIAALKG

[7] = target: T7, 4H953-bA; assay: two-hybrid library CCNG1
T7 chain: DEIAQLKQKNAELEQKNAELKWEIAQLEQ

[8] = target: T8, 4H3843-bA; assay: two-hybrid library CCNG1
T8 chain: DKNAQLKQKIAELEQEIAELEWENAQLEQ

[9] = target: T9, 4H607-bA; assay: two-hybrid library CCNG1
T9 chain: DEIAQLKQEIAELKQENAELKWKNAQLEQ

[10] = target: T10, 4H462-bA; assay: two-hybrid library CCNG1
T10 chain: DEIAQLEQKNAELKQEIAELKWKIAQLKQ

[11] = target: T11, 4H3782-bA; assay: two-hybrid library CCNG1
T11 chain: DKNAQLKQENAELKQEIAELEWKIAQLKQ

[12] = target: T12, 4H797-bA; assay: two-hybrid library CCNG1
T12 chain: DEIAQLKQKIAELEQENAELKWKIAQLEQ

[13] = target: T13, 4H883-bA; assay: two-hybrid library CCNG1
T13 chain: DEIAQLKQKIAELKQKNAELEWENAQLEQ

[14] = target: T14, 4H918-bA; assay: two-hybrid library CCNG1
T14 chain: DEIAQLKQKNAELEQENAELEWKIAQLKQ

[15] = target: T15, 4H72-bA; assay: two-hybrid library CCNG1
T15 chain: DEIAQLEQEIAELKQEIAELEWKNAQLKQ

[16] = target: T16, 4H568-bA; assay: two-hybrid library CCNG1
T16 chain: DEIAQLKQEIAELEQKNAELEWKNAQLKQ

[17] = target: T17, 4H967-bA; assay: two-hybrid library CCNG1
T17 chain: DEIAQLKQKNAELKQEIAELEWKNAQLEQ

[18] = target: T18, 4H3606-bA; assay: two-hybrid library CCNG1; conditions: mean of both orientations
T18 chain: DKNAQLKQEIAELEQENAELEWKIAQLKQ

[19] = target: T19, 4H4001-bA; assay: two-hybrid library CCNG1
T19 chain: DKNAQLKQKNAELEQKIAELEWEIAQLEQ

[20] = target: T20, 4H370-bA; assay: two-hybrid library CCNG1
T20 chain: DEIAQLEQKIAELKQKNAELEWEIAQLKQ

[21] = target: T21, 4H687-bA; assay: two-hybrid library CCNG1
T21 chain: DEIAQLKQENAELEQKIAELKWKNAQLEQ

B1: P5-AA-1HGe-H (peptide)
chain: DENAALEAHIAALHAKNAALKAEIAALEG
Which results are given for B1?
interaction score [1]: 1.88; interaction score [2]: 1.02; interaction score [3]: 1.63; interaction score [4]: 0.42; interaction score [5]: 1.95; interaction score [6]: 1.88

B2: 4H3606-bA (peptide)
chain: DKNAQLKQEIAELEQENAELEWKIAQLKQ
Which results are given for B2?
interaction score [7]: 0.309; interaction score [8]: -0.812; interaction score [9]: -0.936; interaction score [10]: -1.18; interaction score [11]: 0.289; interaction score [12]: -1.09; interaction score [13]: 0.708; interaction score [14]: -0.427; interaction score [15]: -2.04; interaction score [16]: -0.435; interaction score [17]: 0.947; interaction score [18]: -0.112; interaction score [19]: -0.523; interaction score [20]: 1.25; interaction score [21]: -0.711
